Assay results from US20020054882A1 (TAKARA SHUZO, published 2002).

Legend:
Experiment in all cases: cell-based or functional assay
[1] = biological target: HA molecule of A/Sichuan/2/87 (H3N2) (influenza A virus A/Sichuan/2/87 (H3N2))
[2] = biological target: HA molecule of A/Suita/1/90 (H3N2) (influenza A virus A/Suita/1/90 (H3N2))
[3] = biological target: HA molecule of A/Kaizuka/2/65 (H2N2) (influenza A virus A/Kaizuka/2/65 (H2N2))
[4] = biological target: HA molecule of A/Fukuoka/C29/85 (H3N2) (influenza A virus A/Fukuoka/C29/85 (H3N2))
[5] = biological target: HA molecule of A/Yamagata/120/86 (H1N1) (influenza A virus A/Yamagata/120/86 (H1N1))
[6] = biological target: HA molecule of A/Kumamoto/1/65 (H2N2) (influenza A virus A/Kumamoto/1/65 (H2N2))
[7] = biological target: HA molecule of A1/FM/1/47 (H1N1) (influenza A virus A1/FM/1/47 (H1N1))
[8] = biological target: HA molecule of A/Osaka/930/88 (H1N1) (influenza A virus A/Osaka/930/88 (H1N1))
[9] = biological target: HA molecule of A/Adachi/2/57 (H2N2) (influenza A virus A/Adachi/2/57 (H2N2))
[10] = biological target: HA molecule of A/Ibaraki/1/90 (H3N2) (influenza A virus A/Ibaraki/1/90 (H3N2))
[11] = biological target: HA molecule of influenza B virus strain B/Nagasaki/1/87 (influenza B virus B/Nagasaki/1/87)
[12] = biological target: HA molecule of A2/Aichi/2/68 (H3N2) (influenza A virus A2/Aichi/2/68 (H3N2))
[13] = biological target: HA molecule of A/Izumi/5/65 (H2N2) (influenza A virus A/Izumi/5/65 (H2N2))
[14] = biological target: HA molecule of A/Bangkok/10/83 (H1N1) (influenza A virus A/Bangkok/10/83 (H1N1))
[15] = biological target: HA molecule of A/Kitakyushu/159/93 (H3N2) (influenza A virus A/Kitakyushu/159/93 (H3N2))
[16] = biological target: HA molecule of A/PR/8/34 (H1N1) (influenza A virus A/PR/8/34 (H1N1), UniProt P03452 18-565)
Sequence of HA molecule of A/PR/8/34 (H1N1) (P03452 18-565): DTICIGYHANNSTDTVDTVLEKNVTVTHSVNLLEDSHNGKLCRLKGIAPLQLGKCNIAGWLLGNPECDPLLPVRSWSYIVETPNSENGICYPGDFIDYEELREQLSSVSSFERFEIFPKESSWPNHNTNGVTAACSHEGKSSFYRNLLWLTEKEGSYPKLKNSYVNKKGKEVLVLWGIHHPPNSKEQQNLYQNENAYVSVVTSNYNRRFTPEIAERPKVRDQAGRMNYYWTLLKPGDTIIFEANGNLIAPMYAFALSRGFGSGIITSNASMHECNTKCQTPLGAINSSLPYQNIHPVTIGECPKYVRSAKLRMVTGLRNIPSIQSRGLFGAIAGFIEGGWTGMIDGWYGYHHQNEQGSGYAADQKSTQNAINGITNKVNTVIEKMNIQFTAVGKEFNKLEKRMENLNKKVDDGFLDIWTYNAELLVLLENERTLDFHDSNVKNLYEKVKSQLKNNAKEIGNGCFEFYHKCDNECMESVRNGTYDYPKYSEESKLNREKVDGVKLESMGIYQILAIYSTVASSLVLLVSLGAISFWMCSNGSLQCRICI

monoclonal antibody C179
< 32: HI (hemagglutination inhibition test) (dilution ratio of ascites fluid) [1] | HI (hemagglutination inhibition test) (dilution ratio of ascites fluid) [2] | HI (hemagglutination inhibition test) (dilution ratio of ascites fluid) [3] | HI (hemagglutination inhibition test) (dilution ratio of ascites fluid) [4] | HI (hemagglutination inhibition test) (dilution ratio of ascites fluid) [5] | HI (hemagglutination inhibition test) (dilution ratio of ascites fluid) [6] | HI (hemagglutination inhibition test) (dilution ratio of ascites fluid) [7] | HI (hemagglutination inhibition test) (dilution ratio of ascites fluid) [8] | HI (hemagglutination inhibition test) (dilution ratio of ascites fluid) [9] | HI (hemagglutination inhibition test) (dilution ratio of ascites fluid) [10] | HI (hemagglutination inhibition test) (dilution ratio of ascites fluid) [11] | HI (hemagglutination inhibition test) (dilution ratio of ascites fluid) [12] | HI (hemagglutination inhibition test) (dilution ratio of ascites fluid) [13] | HI (hemagglutination inhibition test) (dilution ratio of ascites fluid) [14] | HI (hemagglutination inhibition test) (dilution ratio of ascites fluid) [15]

B1: monoclonal antibody C179 (antibody)
chain 1: EVKLVESGGGLVQPGGSLRLSCGTSGFTLTDDYMTWVRQPPGKALEWLGFIRDRANGYTTEYSASVKGRFTISRDNSQSIVYLQMNTLRVEDSATYYCARPKGYFPYAMDYWGQGT
chain 2: DIQMTQSPASQSASLGESVTITCLASQTIGTWLAWYQQKPGKSPQLLIYAATSLADGVPSRFSGSGSGTKFSFKISSLQAEDFVSYYCQQLYSTPW
< 32 dilution ratio of ascites fluid: HI (hemagglutination inhibition test) [16]
